The data set concerns the molecule itself. Briefly: cross-linking; 1 mg/mL of each protein with increasing BS3 amine ester crosslinker (0.8-8 mM), 30 min at room temperature; denaturing SDS-PAGE, Coomassie blue.

Results on one protein are retold here after publication PMC10949331, “Labile assembly of a tardigrade protein induces biostasis” (Protein Science : A Publication of the Protein Society, 2024).

B1: Cytoplasmic Abundant Heat Soluble protein D (CAHS D), wild type (natural protein, Hypsibius exemplaris, UniProt P0CU50 1-227, looked up)
chain: MSGRNVESHMERNEKVVVNNSGHADVKKQQQQVEHTEFTHTEVKAPLIHPAPPIISTGAAGLAEEIVGQGFTASAARISGGTAEIHLQPSAAMTEEARRDQERYRQEQESIAKQQEREMEKKTEAYRKTAEAEAEKIRKELEKQHARDVEFRKDLIESTIDRQKREVDLEAKMAKRELDREGQLAKEALERSRLATNVEVNFDSAAGHTVSGGTTVSTSDKMEIKRN
notes: CAHS D of the tardigrade Hypsibius exemplaris, 227 residues, UniProt P0CU50; Cloned into pET28b; also called CAHS8_HYPEX; CAHS 94063; source: E. coli BL21 (DE3), purified (heat lysis, cation exchange in 8 M urea, dialysis, lyophilised)
Regarding B1, the binding result is given as “binds”.
